Earlier results on one substance are cited in patent US20240269065A1, “Implantable Device for Release of Glucagon-Like Peptide-1 Receptor Agonist” (Celanese EVA Performance Polymers LLC, priority 2023, published 2024).

The data set addresses GLP-1 receptor (Homo sapiens, UniProt P43220). To be noted: in vitro studies; compared with native GLP-1 and exenatide.

Chain of GLP-1 receptor (P43220 24-463, species assumed): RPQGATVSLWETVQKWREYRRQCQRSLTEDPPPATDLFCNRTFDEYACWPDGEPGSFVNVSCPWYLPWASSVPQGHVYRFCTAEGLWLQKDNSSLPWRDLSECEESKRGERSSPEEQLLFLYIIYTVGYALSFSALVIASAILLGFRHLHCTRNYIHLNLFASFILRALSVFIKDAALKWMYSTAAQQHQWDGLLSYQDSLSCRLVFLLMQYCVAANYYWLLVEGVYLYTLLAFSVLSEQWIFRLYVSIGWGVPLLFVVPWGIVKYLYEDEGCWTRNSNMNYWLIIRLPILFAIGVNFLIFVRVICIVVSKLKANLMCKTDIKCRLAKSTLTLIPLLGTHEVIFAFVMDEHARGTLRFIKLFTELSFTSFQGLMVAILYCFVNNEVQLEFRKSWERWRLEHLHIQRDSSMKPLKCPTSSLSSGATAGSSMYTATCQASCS

For the substance Lixisenatide, the “affinity for the GLP-1 receptor relative to native GLP-1 and exenatide” value is “four times greater affinity”.
